# Assay results as given in patent US6956104B2, “Protein Rim2” (JCR Pharmaceuticals Co., Ltd., priority 1999, dated 2005).
# Residue numbers refer to the chain shown, from its start. Names may count otherwise.
# T1: constitutively active Rab3A (Q81L) (Bos taurus, UniProt P11023, Q81L)
# T1 construct: the full-length cDNA's for wild type mouse Rab3A and constitutively active bovine Rab3A (Q81L) were cloned into the yeast bait vector pBTM116; expressed in transfected cells
# T1 sequence (P11023 1-220 Q81L): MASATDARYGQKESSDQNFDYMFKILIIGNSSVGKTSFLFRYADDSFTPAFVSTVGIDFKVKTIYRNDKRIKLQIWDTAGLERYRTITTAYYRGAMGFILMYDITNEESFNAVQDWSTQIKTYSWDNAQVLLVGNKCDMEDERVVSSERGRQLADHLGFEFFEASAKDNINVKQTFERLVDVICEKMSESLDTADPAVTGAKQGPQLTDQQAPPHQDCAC
# T2: cAMP-GEFII (Mus musculus, UniProt Q9EQZ6)
# T2 construct: A full-length cAMP-GEFII cDNA was subcloned into plasmid pFLAG-CMV-2 (Sigma); expressed in transfected cells; host or cells: COS-1 cells
# T2 sequence (Q9EQZ6 1-1011): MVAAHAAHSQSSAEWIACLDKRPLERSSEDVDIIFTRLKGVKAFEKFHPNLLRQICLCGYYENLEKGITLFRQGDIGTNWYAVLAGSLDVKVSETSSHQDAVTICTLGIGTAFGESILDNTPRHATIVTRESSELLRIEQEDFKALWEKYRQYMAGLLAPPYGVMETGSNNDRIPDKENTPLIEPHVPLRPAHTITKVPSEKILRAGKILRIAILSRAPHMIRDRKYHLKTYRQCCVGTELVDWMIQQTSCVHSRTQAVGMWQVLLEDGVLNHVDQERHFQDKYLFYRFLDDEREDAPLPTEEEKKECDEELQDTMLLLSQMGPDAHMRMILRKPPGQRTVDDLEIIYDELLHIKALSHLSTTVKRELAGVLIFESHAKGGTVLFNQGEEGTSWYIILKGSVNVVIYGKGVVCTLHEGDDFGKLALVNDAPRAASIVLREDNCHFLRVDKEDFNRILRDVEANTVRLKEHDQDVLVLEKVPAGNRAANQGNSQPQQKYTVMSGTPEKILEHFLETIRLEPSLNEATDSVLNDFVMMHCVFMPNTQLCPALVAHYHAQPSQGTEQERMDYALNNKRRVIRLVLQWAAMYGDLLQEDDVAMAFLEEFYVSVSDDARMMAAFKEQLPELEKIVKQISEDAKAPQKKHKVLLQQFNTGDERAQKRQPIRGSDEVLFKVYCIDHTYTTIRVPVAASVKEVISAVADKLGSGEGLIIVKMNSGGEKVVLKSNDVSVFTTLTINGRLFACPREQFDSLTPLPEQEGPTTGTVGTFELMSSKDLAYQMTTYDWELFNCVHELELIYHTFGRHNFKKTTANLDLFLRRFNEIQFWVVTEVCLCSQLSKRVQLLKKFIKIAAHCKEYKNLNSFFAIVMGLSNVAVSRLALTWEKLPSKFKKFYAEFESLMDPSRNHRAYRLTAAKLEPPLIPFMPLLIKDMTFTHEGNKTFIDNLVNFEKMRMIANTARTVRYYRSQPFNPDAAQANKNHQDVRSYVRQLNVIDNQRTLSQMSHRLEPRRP
# B1: cAMP-GEFII: cAMP sensor protein, GDP/GTP exchange factor II; wild type transfected into PC12 cells (protein)
# chain: T2 sequence (Q9EQZ6 1-1011)
# modifications: left off: large carriers
# notes: cAMP sensor protein, GDP/GTP exchange factor II; wild type transfected into PC12 cells
# B2: cAMP-GEFII (G114E, G422D): double mutant cAMP-GEFII in which both cAMP binding sites are disrupted (protein, UniProt Q9EQZ6 1-1011, looked up, variant G114E G422D)
# Rap guanine nucleotide …: T2 sequence (Q9EQZ6 1-1011) with G114E, G422D
# B3: cAMP-GEFII (T810A): mutant cAMP-GEFII in which a potential PKA phosphorylation site is disrupted (protein, UniProt Q9EQZ6 1-1011, looked up, variant T810A)
# Rap guanine nucleotide …: T2 sequence (Q9EQZ6 1-1011) with T810A
# B4: Rim1: Rab3-interacting molecule, putative effector of the small G protein Rab3; rat, used as GST fusion (protein)
# chain: MSSAVGPRGPRPPTVPPPMQELPDLSHLTEEERNIIMAVMDRQKEEEEKEEAMLKCVVRDMAKPAACKTPRNAESQPHQPPLNIFRCVCVPRKPSSEEGGPERDWRLHQQFESYKEQVRKIGEEARRYQGEHKDDAPTCGICHKTKFADGCGHLCSYCRTKFCARCGGRVSLRSNNEDKVVMWVCNLCRKQQEILTKSGAWFFG
# modifications: left off: large carriers
# notes: rat, used as GST fusion
# Experiments:
# PC12 cells = experiment: GH secretion from transfected PC12 cells; type: cell-based; conditions: for 8-Br-cAMP-induced, Ca2+-dependent GH secretion: 8-Br-cAMP 1 mM, GH released relative to total cellular GH, n=9; for forskolin-induced GH secretion relative to wild-type cAMP-GEFII: high K+, 15-min incubation, increment above basal, wild-type = 100%
# Experimental: GH secretion from transfected PC12 cells was performed as described in K. Korake et al., J. Biol. Chem., 272:29407(1997). Expression plasmid vectors (pSR α) for wild-type cAMP-GEFII, mutant cAMP-GEFII (T810A), and the double mutant cAMP-GEFII (G114E, G422D) were prepared. As a control, β-galactosidase (β-gal) was used. […] were transfected with GH expression vector (pXGH5: Nichols Institute) plus each vector described above, using LipofectAMINE.
# PC12 cell were incubated with a low […] (4.7 mM) or high K^+ (60 mM) solution, in the presence or absence of forskolin (50 μM) or 8-bromoadenosine 3′,5′ cyclic monophosphate (8-Br-cAMP)(1 mM). Forskolin or 8-Br-cAMP was added 10 min before the incubation with a low or high K^+ solution. In some experiments, the PKA inhibitor H-89 (10 μM) was added 10 min before forskolin stimulation.
# [1] = biological target: T1, constitutively active Rab3A (Q81L); experiment: Yeast two-hybrid assay with Rab3A; type: binding, bovine; conditions: transactivation of liquid β-galactosidase activity
# Excerpt: According to the method described in “Identification of Interacting molecules by YTH Method”, the full-length cDNA's for wild type mouse Rab3A and constitutively active bovine Rab3A (Q81L) were cloned into the yeast bait vector pBTM116.
# The nucleotide sequence of zinc finger domains of bovine rabphilin3 (amino acid residues 1-283), rat Rim1 (amino acid residues 1-204) and mouse Rim2 (amino acid residues 1-345 were cloned into the prey vector pVP16. Liquid culture assay of […] activities was performed according to the manufacturer's instructions (Clontech). The activity values were obtained from 3 independent clones for each transformant and normalized by cell numbers determined as OD600.
# cAMP-GEFII = biological target: T2, cAMP-GEFII; experiment: GST pull-down, interaction of Rim with cAMP-GEFII; type: binding; conditions: lysates of COS-1 or MIN6 cells, or mouse brain homogenate; immunoblotting
# Experimental: Rim2 (amino acid residues 538-863) was expressed as a GST fusion protein and purified according to the method described in “Preparation and Test of GST fusion Protein”. A full-length cAMP-GEFII cDNA was subcloned into plasmid pFLAG-CMV-2 (Sigma). The resultant construct was transfected into COS-1 cells, using LipofectAMINE (Life Technologies). The lysate of the COS-1 cells was incubated with GST-Rim2 immobilized on glutathione beads for 2 hrs at 4° C. The complex thus obtained was washed with distilled water, separated by SDS-PAGE, and immunoblotted with an anti-FLAG M2 antibody (Sigma).
# The lysate of MIN6 cells was incubated with GST-Rim2 and interaction between cAMP-GEFII and Rim2 was evaluated according to the method described in “Study on Interaction between Rim2 and cAMP-GEFII: I”, using a IgG antibody raised against the C-terminus (amino acid residues 1001-1011, […] (SEQ ID NO:5) of mouse cAMP-GEFII.
# According to the method described in “Preparation and Test of GST fusion Protein”, Rim1 partial sequence (530-806) was expressed as a GST fusion protein and then purified. The brain homogenate from three mice was incubated with GST-Rim1 immobilized on glutathione beads overnight at 4° C. cAMP-GEFII was detected as described in “Study on Interaction between Rim2 and cAMP-GEFII: II”.
# Rab3A = experiment: In vitro binding of Rab3A to immobilized GST-Rim; conditions: immobilized on glutathione beads; anti-Rab3A immunoblotting
# Experimental: Lipid-modified Rab3A was purified from the membrane fraction of Sf9 cells expressing Rab3A. Rat Rim1 (amino acid residues 1-204) and mouse Rim2 (amino acid residues 1-345) were expressed as GST fusion proteins and purified. The GTP γS- or GDP βS-bound form of Rab3A was incubated for 90 min at 4° C. with GST-Rim1, or GST-Rim2 (30 pmol for each) immobilized on glutathione beads in reaction buffer. Rab3A was detected by immunoblotting with anti-Rab3A antibody.
molecule,measurement,setting,value
"Nc1ncnc2c1nc(Br)n2[C@@H]1O[C@@H]2COP(=O)(O)O[C@H]2[C@H]1O [8-Br-cAMP, 8-bromoadenosine 3′,5′ cyclic monophosphate, reference compound]","8-Br-cAMP-induced, Ca2+-dependent GH secretion",PC12 cells; cAMP-GEFII-transfectant,34.9±1.3%
same,"8-Br-cAMP-induced, Ca2+-dependent GH secretion",PC12 cells; control (β-galactosidase-transfectant),25.1±1.8%
"O=S(=O)(NCCNC/C=C/c1ccc(Br)cc1)c1cccc2cnccc12 [H-89, reference compound]",effect on high K+-induced GH secretion,"PC12 cells; H-89 10 μM, cAMP-GEFII-transfected and β-galactosidase-transfected PC12 cells",reduced
B1,"forskolin-induced, Ca2+-dependent GH secretion with PKA inhibitor H-89, versus control cells","PC12 cells; H-89 10 μM, forskolin 50 μM",significantly higher
same,effect on Ca2+-dependent (60 mM K+) secretion of cotransfected GH,PC12 cells; compared to the control transfectant,did not alter
same,"effect on forskolin-induced, Ca2+-dependent GH secretion",PC12 cells; forskolin 50 μM,significantly enhanced
B2,forskolin-induced GH secretion relative to wild-type cAMP-GEFII,PC12 cells; forskolin 50 μM,~40%
B3,forskolin-induced GH secretion relative to wild-type cAMP-GEFII,PC12 cells; forskolin 50 μM,not affected
B4,interaction with active Rab3A (Q81L),[1],interacts
same,interaction with cAMP-GEFII protein,cAMP-GEFII,bound
same,binding to GTPγS- or GDP-bound form of Rab3A,Rab3A,binds to the GTP-activated form
